From patent publication US20060193821, “Aptamers to the human IL-12 cytokine family and their use as autoimmune disease therapeutics” (published 2006)

What was measured:
[1] = molecular target: T1, IL-23 (human, p19/p40 heterodimer) (Homo sapiens, UniProt Q9NPF7;P29460 SEQ:20-189,SEQ:23-328); test: filter; +tRNA; settings: tags: R&D Systems, carrier free
[2] = molecular target: T2, IL-12 (human, p35/p40 heterodimer) (Homo sapiens, UniProt P29459;P29460 SEQ:57-253,SEQ:23-328); test: filter; 1X PBS, tRNA, ssDNA, BSA, 30 min RT; settings: label: 5'-32P; G4 (predicted)
T2 sequence (P29459 23-219, chain 1 of 2): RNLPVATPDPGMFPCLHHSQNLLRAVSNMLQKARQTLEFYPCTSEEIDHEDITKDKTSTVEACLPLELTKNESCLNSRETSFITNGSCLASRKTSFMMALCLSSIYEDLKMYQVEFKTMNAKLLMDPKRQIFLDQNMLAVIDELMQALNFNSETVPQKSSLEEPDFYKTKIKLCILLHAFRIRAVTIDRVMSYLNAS
T2 sequence (P29460 23-328, chain 2 of 2): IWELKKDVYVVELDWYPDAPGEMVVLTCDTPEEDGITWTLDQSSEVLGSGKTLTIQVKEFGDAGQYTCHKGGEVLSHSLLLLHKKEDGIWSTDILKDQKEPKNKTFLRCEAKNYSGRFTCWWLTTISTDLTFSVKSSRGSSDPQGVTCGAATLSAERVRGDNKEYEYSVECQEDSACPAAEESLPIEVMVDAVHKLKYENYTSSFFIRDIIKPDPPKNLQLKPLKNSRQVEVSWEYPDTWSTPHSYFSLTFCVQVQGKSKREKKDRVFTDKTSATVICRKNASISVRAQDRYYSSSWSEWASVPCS
Description: (§1) The clones were 5′end labeled with γ-³²P ATP, and were assayed for both IL-23 and IL-12 binding in a 3-point dot blot screen (0 nM, 20 nM, and 100 nM h-IL-23; 0 nM, 20 nM, and 100 nM h-IL-12) (data not shown). […] KD values were determined by fitting an equation describing a 1:1 RNA:protein complex to the resulting data (fraction aptamer bound=amplitude*([IL-23]/(KD+[IL-23]))+background binding) (KaleidaGraph v. 3.51, Synergy Software). Results of protein binding characterization for the higher affinity clones are tabulated in Table 13, and corresponding clone sequences are listed in Table 12.

[3] = molecular target: T1, IL-23 (human, p19/p40 heterodimer); test: filter; 1X PBS, tRNA, ssDNA, BSA, 30 min RT; settings: tags: R&D Systems, carrier free; label: 5'-32P; G4 (predicted)
Description: as §1

[4] = molecular target: T2, IL-12 (human, p35/p40 heterodimer); test: filter; tRNA
Description: Monitoring Progress of rRfY Selection. Dot blot binding assays were performed throughout the selections to monitor the protein binding affinity of the pools. Trace ³²P-labeled RNA was combined with a dilution series of h-IL-23 and incubated at room temperature for 30 minutes in 1×SHMCK (20 mM Hepes, 120 mM NaCl, 5 mM KCl, 1 mM MgCl₂, 1 mM CaCl₂, pH 7.4) plus 0.1 mg/mL tRNA for a final volume of 20 μL. The binding reactions were analyzed by nitrocellulose filtration using a Minifold I dot-blot, 96-well vacuum filtration manifold (Schleicher & Schuell, Keene, N.H.). A three-layer filtration medium was used, consisting (from top to bottom) of Protran nitrocellulose (Schleicher & Schuell), Hybond-P nylon (Amersham Biosciences) and GB002 gel blot paper (Schleicher & Schuell). RNA that is bound to protein is captured on the nitrocellulose filter, whereas the non-protein bound RNA is captured on the nylon filter. The gel blot paper was included simply as a supporting medium for the other filters. Following filtration, the filter layers were separated, dried and exposed on a phosphor screen (Amersham Biosciences, Piscataway, N.J.) and quantified using a Storm 860 Phosphorimager® blot imaging system (Amersham Biosciences).
When a significant positive ratio of binding of RNA in the presence of h-IL-23 versus in the absence of h-IL-23 was seen, the pools were cloned using a TOPO TA cloning kit (Invitrogen, Carlsbad, Calif.) according to the manufacturer's instructions. For the h-IL-23 and X-IL-23 selections, the Round 8 pool templates were cloned, and 32 individual clones from each selections were assayed in a 1-point dot blot screen (+/−75 nM h-IL-23, as well as a separate screen at +/−75 nM h-IL-12). For the PN-IL-23 selection, the Round 10 pool was cloned and sequenced, and 8 unique clones were assayed for protein binding in a 1-point dot blot screen (+/−200 nM h-IL-23 and a separate screen at +/−200 nM h-IL-12). Subsequently, the Round 10 PN-IL-23 pool was re-cloned for further sequences, as well as the R12 PN-IL-23 pool, and the clones were assayed for protein binding in a 1 point do blot screen (+/−100 nM h-IL-23 or +/−200 nM h-IL-12).

[5] = molecular target: T1, IL-23 (human, p19/p40 heterodimer); test: filter; SHMCK, tRNA; settings: tags: R&D Systems, carrier free
Outline: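 Trace ³²P-labeled RNA incubated with a dilution series of h-IL-23 for 30 min at room temperature in 1×SHMCK (pH 7.4, 1 mM MgCl₂, 1 mM CaCl₂) plus 0.1 mg/mL tRNA. Bound RNA captured on nitrocellulose, free RNA on nylon; quantified by phosphorimaging. Clone screens used single points of 75, 100 or 200 nM IL-23 or IL-12.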

[6] = molecular target: T1, IL-23 (human, p19/p40 heterodimer); test: cell_activity; TransAM STAT3; settings: tags: R&D Systems, carrier free
Description: In summary, the cell-based assay was conducted by isolating the peripheral blood mononuclear cells (PBMCs) from whole blood using a Histopaque gradient (Sigma, St. Louis, Mo.). The PBMCs were cultured for 3 to 5 days at 37° C./5% CO₂ in Peripheral Blood Medium (Sigma) which contains PHA, supplemented with IL-2 (100 units/mL) (R&D Systems, Minneapolis, Minn.), to generate PHA Blasts. To test IL-23 aptamers, the PHA Blasts were washed twice with 1×PBS, then serum starved for four hours in RPMI, 0.20% FBS. After serum starvation, approximately 2 million cells were aliquotted into appropriately labeled eppendorf tubes. hIL-23 at a final constant concentration of 3 ng/mL (R&D Systems, Minneapolis, Minn.) was combined with a dilution series of various IL-23 aptamers as described in Example 1, and the cytokine/aptamer mixture was added to the aliquotted cells in a final volume of 100 μl and incubated at 37° C. for 10-12 minutes. The incubation reaction was stopped by adding 1 mL of ice-cold PBS with 1.5 mM Na₃VO₄. Cell lysates were made using the lysis buffer provided by the TransAM™ STAT 3 assay following the manufacturer's instructions. FIG. 20 depicts a flow summary of the protocol used for the cell based assay.
Full length clones from the rRfY selection described in Example 1A, and select minimized rRfY clones that were described in Example 2A. 1, were tested using the TransAM™ STAT3 activation assay. Table 34 summarizes the cell based assay data for IL-23 full length aptamers generated from the rRfY selections described in Example 1A. 1, each compared to the activity of their respective parent (full length) clone.

[7] = molecular target: T1, IL-23 (human, p19/p40 heterodimer); test: filter; dot blot; DPBS with Ca and Mg, 0.1 mg/mL BSA, 30 min RT; settings: tags: R&D Systems, carrier free, label: 5'-32P
Description: The dot blot binding assay previously described was used to characterize the relative potency of the majority of the aptamers synthesized. For KD determination, chemically synthesized aptamers were purified using denaturing polyacrylamide gel electrophoresis, 5′end labeled with γ-³²P ATP and were tested for direct binding to full human IL-23. An 8 point protein titration was used in the dot blot binding assay (either {100 nM, 30 nM, 10 nM, 3 nM, 1 nM, 300 pM, 100 pM, 0 pM} or {10 nM, 3 nM, 1 nM, 300 pM, 100 pM, 30 pM, 10 pM, 0 pM}) in Dulbecco's PBS (with Mg⁺⁺ and Ca⁺⁺) with 0.1 mg/mL BSA. KD values were calculated by fitting the equation y=(max/(1+K/protein))+yint using KaleidaGraph (KaleidaGraph v. 3.51, Synergy Software). Sequences of the ARC979 derivatives synthesized, purified and assayed for binding to IL-23 as well as the results of the protein binding characterization are tabulated below in Tables 29 and 30.

T1 sequence (Q9NPF7 20-189, chain 1 of 2): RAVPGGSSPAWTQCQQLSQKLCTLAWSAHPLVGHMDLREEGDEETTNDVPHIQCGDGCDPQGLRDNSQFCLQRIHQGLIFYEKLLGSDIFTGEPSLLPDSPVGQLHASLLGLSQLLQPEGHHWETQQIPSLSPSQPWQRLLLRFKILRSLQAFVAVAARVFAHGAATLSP
T1 sequence (P29460 23-328, chain 2 of 2): as the sequence (P29460 23-328, chain 2 of 2) above

Row | Binder | Kd [1] [nM] | Kd [7] [nM] | further results
1 | GGCAAGGUAAUUGGGAAGUGUGGGCGGGG (mixed, deoxy A,G; 2'-OMe C,U) [ARC891] | 177 | – | –
2 | ARC627 (mixed, 2'-deoxy A and G, 2'-OMe C and U (dRmY)) RNA: GGGAGAGGAGAGAACGUUCUACAGGCAAGUAAUUGGGGAGUGCGGGCGGGGUGUCGAUCGAUCGAUCAUCGAUG | – | – | Kd [2]: 79.5 nM; Kd [3]: 7 nM
3 | ARC626 (mixed, 2'-deoxy A and G, 2'-OMe C and U (dRmY)) RNA: GGGAGAGGAGAGAACGUUCUACAGGCAAGUAAUUGGGGAGUGCGGGCGGGGGGUCGAUCGAUCGAUCAUCGAUG | – | – | Kd [2]: 69.8 nM; Kd [3]: 10.1 nM
4 | ARC614 (mixed, 2'-deoxy A and G, 2'-OMe C and U (dRmY)) RNA: GGGAGAGGAGAGAACGUUCUACAAGGCGGUACGGGGAGUGUGGGUUGGGGCCGGUCGAUCGAUCGAUCAUCGAUG | – | – | Kd [2]: 54.4 nM; Kd [3]: 3.1 nM
5 | AMX86-H9 (ssRNA, 2'-F C,U) RNA: GGGAAAAGCGAAUCAUACACAAGAUGGUUCCCACGUGAAAGUGGCUAGCGAGUACCCCACUUAUGCUCCGCCAGAGACCAACCAAGGG | – | – | Kd [4]: 332 nM; Kd [5]: 105 nM; IC50 [6]: 250 nM
6 | GGCAAGUAAUUGGGGAGUGCGGGCGGGG (mixed, dRmY; 2'-OMe at two As and one G as printed in Table 29; 3'-idT) [ARC1469] | – | 49.8 | –
7 | GGUGGGGAGUGCGGGCGGGGGGUCGCC (mixed, deoxy A,G; 2'-OMe C,U) [ARC797] | 50 | – | –
8 | ARC612 (mixed, 2'-deoxy A and G, 2'-OMe C and U (dRmY)) RNA: GGGAGAGGAGAGAACGUUCUACAGGCAAGUAAUUGGGGAGUGCGGGCGGGGGGGUCGAUCGAUCGAUCAUCGAUG | – | – | Kd [2]: 41.7 nM; Kd [3]: 5.8 nM
9 | GGCAAGUAAUUGGGGAGUGCGGGCGGGG (mixed, dRmY; 3'-idT) [ARC1468] | – | 10 | –
10 | GAUGUUGGCAAGUAAUUGGGGAGUGCGGGCGGGGUUCAUC (mixed, deoxy A,G; 2'-OMe C,U; 3'-idT) [ARC897] | 93 | – | –
11 | ACAGGCAAGUAAUUGGGGAGUGCGGGCGGGGUGU (mixed, ARC1544 sugars; PS at 17 linkages 5' of deoxy residues as printed in Table 29; 3'-idT [PS at 2-3, 3-4, 4-5, 6-7, 7-8, 8-9, 10-11, 11-12, 14-15, 17-18, 18-19, 19-20, 21-22, 25-26, 27-28, 28-29, 32-33; ARC1544 sugars (2'-deoxy/2'-OMe); 3'-inverted dT at 35]) [ARC1626] | – | 0.1 | –
12 | ACAGGCAAGUAAUUGGGGAGUGCGGGCGGGGUGU (mixed, dAmCdAdGdGmCdAdAdGmUdAdAmUmUdGmGmG-s-dG-s-dA-s-dGmU-s-dGmCmGmGdGmCdGdGmGmGmUdGmU-3T (d deoxy, m 2'-OMe, s PS, 3T idT) [PS at 17-18, 18-19, 19-20, 21-22; 2'-OMe at 2,6,10,13,14,16,17,21,23,24,25,27,30,31,32,34; 2'-deoxy at other nt 1-33; 3'-inverted dT at 35]) [ARC1623] | – | 0.2 | –
13 | CCAGGCAAGUAAUUGGGGAGUGCGGGCGGGGUGG (mixed, deoxy A,G; 2'-OMe C,U) [ARC980] | 139 | – | –
14 | ACAGGCAAGUAAUUGGGGAGUGCGGGCGGGGUGU (mixed, dRmY with 2'-OMe at G16, G17, G23, G24, G29, G30; 3'-idT) [ARC1544] | – | 0.9 | –
15 | ACAGGCAAGUAAUUGGGGAGUGCGGGCGGGGUGU (mixed, dAmCdAdGdGmCdAdAdGmUdAdAmUmUdGmGmGdGdAdGmUdGmCmGmGdGmCdGdGmGmGmU-s-dGmU-3T (d deoxy, m 2'-OMe, s PS, 3T idT) [PS at 32-33; 2'-OMe at 2,6,10,13,14,16,17,21,23,24,25,27,30,31,32,34; 2'-deoxy at other nt 1-33; 3'-inverted dT at 35]) [ARC1625] | – | 0.4 | –
16 | ACAGGCAAGUAAUUGGGGAGUGCGGGCGGGGUGU (mixed, dRmY; 3'-idT) [ARC1386] | – | – | Kd ([7]; G4 (predicted)): 1 nM
17 | ACAGGCAAGUAAUUGGGGAGUGCGGGCGGGGUGU (mixed, dAmCdAdGdGmCdAdAdGmUdAdAmUmUdGmGmGdGdAdGmUdGmCmGmG-s-dGmC-s-dG-s-dGmGmGmUdGmU-3T (d deoxy, m 2'-OMe, s PS, 3T idT) [PS at 25-26, 27-28, 28-29; 2'-OMe at 2,6,10,13,14,16,17,21,23,24,25,27,30,31,32,34; 2'-deoxy at other nt 1-33; 3'-inverted dT at 35]) [ARC1624] | – | 0.4 | –
18 | ACAGGCAAGUAAUUGGGGAGUGCGGGCGGGGUGU (mixed, dRmY; 2'-OMe A7; 3'-idT) [ARC1431] | – | 10 | –
19 | ACAGGCAAGUAAUUGGGGAGUGCGGGCGGGGUGU (mixed, mAmC-s-dAdGdGmC-s-dAmAmGmUmA-s-dAmUmU-s-dGmGmG-s-dG-s-dA-s-dGmU-s-dGmCmGmGmGmCmGmGmGmGmUmGmU-3T (d deoxy, m 2'-OMe, s PS, 3T idT) [PS at 2-3, 6-7, 11-12, 14-15, 17-18, 18-19, 19-20, 21-22; 2'-deoxy at 3,4,5,7,12,15,18,19,20,22; 2'-OMe at other nt 1-34; 3'-inverted dT at 35]) [ARC1756] | – | 0.5 | –
20 | ACAGGCAAGUAAUUGGGGAGUGCGGGCGGGGUGU (mixed, dRmY; 2'-OMe G15; 3'-idT) [ARC1436] | – | 15.1 | –
21 | UAAUUGGGGAGUGCGGGCGGGGGGUCGAUCG (mixed, deoxy A,G; 2'-OMe C,U) [ARC796] | 106 | – | –
22 | GGCAAGGUAAUUGGGUAGUGAGGGCGGGG (mixed, deoxy A,G; 2'-OMe C,U) [ARC892] | 255 | – | –
23 | CCAGGCAAGGUAAUUGGGGAGUGCGGGCGGGGUGG (mixed, deoxy A,G; 2'-OMe C,U) [ARC890] | 114 | – | –
24 | ACAGGCAAGGUAAUUGGGGAGUGCGGGCGGGGUGU (mixed, deoxy A,G; 2'-OMe C,U) [ARC889] | 115 | – | –
25 | GGCAAGGUAAUUGGGGAGUGCGGGCUGGG (mixed, deoxy A,G; 2'-OMe C,U) [ARC893] | 2860 | – | –
